Assays:
Assay in all cases: cell-based or functional assay
[1] = biological target: HIV-1 Env of pseudovirus 211-9 (clade CRF02_AG) (HIV-1)
[2] = biological target: HIV-1 Env of pseudovirus C4118.c09 (clade CRF01_AE) (HIV-1)
[3] = biological target: HIV-1 Env of pseudovirus 1006_11_C3_1601 (clade B (T/F)) (HIV-1)
[4] = biological target: HIV-1 Env of pseudovirus 1012_11_TC21_3257 (clade B (T/F)) (HIV-1)
[5] = biological target: HIV-1 Env of pseudovirus 1394C9G1(Rev-) (clade C (T/F)) (HIV-1)
[6] = biological target: HIV-1 Env of pseudovirus 246F C1G (clade C (T/F)) (HIV-1)
[7] = biological target: HIV-1 Env of pseudovirus 7030102001E5(Rev-) (clade C (T/F)) (HIV-1)
[8] = biological target: HIV-1 Env of pseudovirus AC10.0.29 (clade B) (HIV-1)
[9] = biological target: HIV-1 Env of pseudovirus CAP210.2.00.E8 (clade C) (HIV-1)
[10] = biological target: HIV-1 Env of pseudovirus CNE52 (clade BC) (HIV-1)
[11] = biological target: HIV-1 Env of pseudovirus CNE58 (clade BC) (HIV-1)
[12] = biological target: HIV-1 Env of pseudovirus Ce0393_C3 (clade C (T/F)) (HIV-1)
[13] = biological target: HIV-1 Env of pseudovirus Ce0682_E4 (clade C (T/F)) (HIV-1)
[14] = biological target: HIV-1 Env of pseudovirus Ce1086_B2 (clade C (T/F)) (HIV-1)
[15] = biological target: HIV-1 Env of pseudovirus HIV-0013095-2.11 (clade C) (HIV-1)
[16] = biological target: HIV-1 Env of pseudovirus HIV-001428-2.42 (clade C) (HIV-1)
[17] = biological target: HIV-1 Env of pseudovirus HIV-16055-2.3 (clade C) (HIV-1)
[18] = biological target: HIV-1 Env of pseudovirus PVO.4 (clade B) (HIV-1)
[19] = biological target: HIV-1 Env of pseudovirus Q842.d12 (clade A) (HIV-1)
[20] = biological target: HIV-1 Env of pseudovirus QH0692.42 (clade B) (HIV-1)
[21] = biological target: HIV-1 Env of pseudovirus SC05_8C11_2344 (clade B (T/F)) (HIV-1)
[22] = biological target: HIV-1 Env of pseudovirus ZM135M.PL10a (clade C) (HIV-1)
[23] = biological target: HIV-1 Env pseudovirus 211-9 (HIV-1)
[24] = biological target: HIV-1 Env pseudovirus 3103.v3.c10 (HIV-1)
[25] = biological target: HIV-1 Env pseudovirus 3365.v2.c2 (HIV-1)
[26] = biological target: HIV-1 Env pseudovirus 3415.v1.c1 (HIV-1)
[27] = biological target: HIV-1 Env pseudovirus 6952.v1.c20 (HIV-1)
[28] = biological target: HIV-1 Env pseudovirus R1166.c01 (HIV-1)
[29] = biological target: HIV-1 Env pseudovirus T278-50 (HIV-1)
[30] = biological target: HIV-1 Env pseudovirus X1254_c3 (HIV-1)
[31] = biological target: HIV-1 Env pseudovirus X2131_C1_B5 (HIV-1)

Substance: 10-1074 (antibody)
- IC50, titer in TZM.bl cells [1]: 0.112 µg/mL
- IC80, titer in TZM.bl cells [1]: 0.425 µg/mL
- IC50, titer in TZM.bl cells [2]: > 50 µg/mL
- IC80, titer in TZM.bl cells [2]: > 50 µg/mL

Substance: 10E8 (antibody)
- IC50, titer in TZM.bl cells [1]: 1.09 µg/mL
- IC80, titer in TZM.bl cells [1]: 6.51 µg/mL
- IC50, titer in TZM.bl cells [2]: 1.62 µg/mL
- IC80, titer in TZM.bl cells [2]: 9.06 µg/mL

Substance: N49P7.2 (antibody)
- IC50 [3]: 0.085 µg/mL
- IC80 [3]: 0.237 µg/mL
- MPI [3]: 100
- IC50 [4]: 0.06 µg/mL
- IC80 [4]: 0.285 µg/mL
- MPI [4]: 100
- IC50 [5]: > 50 µg/mL
- IC80 [5]: > 50 µg/mL
- MPI [5]: 20
- IC50 [6]: 0.049 µg/mL
- IC80 [6]: 0.192 µg/mL
- MPI [6]: 100
- IC50 [7]: 0.313 µg/mL
- IC80 [7]: 1.03 µg/mL
- MPI [7]: 100
- IC50 [8]: 44.2 µg/mL
- IC80 [8]: > 50 µg/mL
- MPI [8]: 53
- IC50 [9]: 3.94 µg/mL
- IC80 [9]: 21.7 µg/mL
- MPI [9]: 95
- IC50 [10]: 0.03 µg/mL
- IC80 [10]: 0.088 µg/mL
- MPI [10]: 100
- IC50 [11]: 0.045 µg/mL
- IC80 [11]: 0.129 µg/mL
- MPI [11]: 100
- IC50 [12]: 0.137 µg/mL
- IC80 [12]: 0.368 µg/mL
- MPI [12]: 100
- IC50 [13]: 0.067 µg/mL
- IC80 [13]: 0.233 µg/mL
- MPI [13]: 100
- IC50 [14]: 0.166 µg/mL
- IC80 [14]: 1 µg/mL
- MPI [14]: 100
- IC50 [15]: 0.183 µg/mL
- IC80 [15]: 0.931 µg/mL
- MPI [15]: 97
- IC50 [16]: 0.01 µg/mL
- IC80 [16]: 0.036 µg/mL
- MPI [16]: 100
- IC50 [17]: 0.204 µg/mL
- IC80 [17]: 0.721 µg/mL
- MPI [17]: 100
- IC50 [18]: 0.237 µg/mL
- IC80 [18]: 0.831 µg/mL
- MPI [18]: 100
- IC50 [19]: 0.045 µg/mL
- IC80 [19]: 0.2 µg/mL
- MPI [19]: 100
- IC50 [20]: 1.26 µg/mL
- IC80 [20]: 4.42 µg/mL
- MPI [20]: 100
- IC50 [21]: 0.326 µg/mL
- IC80 [21]: 1.14 µg/mL
- MPI [21]: 100
- IC50 [22]: 0.596 µg/mL
- IC80 [22]: 2.8 µg/mL
- MPI [22]: 99

Substance: N49P9 (antibody)
- IC50 [23]: 0.136 µg/mL
- IC80 [23]: 0.485 µg/mL
- MPI [23]: 100
- IC50 [24]: 17.6 µg/mL
- IC80 [24]: > 50 µg/mL
- MPI [24]: 55
- IC50 [25]: 0.059 µg/mL
- IC80 [25]: 0.198 µg/mL
- MPI [25]: 100
- IC50 [26]: 0.137 µg/mL
- IC80 [26]: 0.502 µg/mL
- MPI [26]: 100
- IC50 [27]: 0.095 µg/mL
- IC80 [27]: 0.258 µg/mL
- MPI [27]: 100
- IC50 [28]: 0.064 µg/mL
- IC80 [28]: 0.223 µg/mL
- MPI [28]: 100
- IC50 [29]: > 50 µg/mL
- IC80 [29]: > 50 µg/mL
- MPI [29]: 25
- IC50 [30]: 0.04 µg/mL
- IC80 [30]: 0.104 µg/mL
- MPI [30]: 100
- IC50 [31]: 0.082 µg/mL
- IC80 [31]: 0.274 µg/mL
- MPI [31]: 100

Substance: N49P9.1 (antibody)
- IC50 [23]: 0.17 µg/mL
- IC80 [23]: 0.579 µg/mL
- MPI [23]: 100
- IC50 [24]: > 50 µg/mL
- IC80 [24]: > 50 µg/mL
- MPI [24]: 45
- IC50 [25]: 0.055 µg/mL
- IC80 [25]: 0.725 µg/mL
- MPI [25]: 100
- IC50 [26]: 0.21 µg/mL
- IC80 [26]: 1.37 µg/mL
- MPI [26]: 100
- IC50 [27]: 0.119 µg/mL
- IC80 [27]: 0.389 µg/mL
- MPI [27]: 100
- IC50 [28]: 0.073 µg/mL
- IC80 [28]: 0.232 µg/mL
- MPI [28]: 100
- IC50 [29]: > 50 µg/mL
- IC80 [29]: > 50 µg/mL
- MPI [29]: 5
- IC50 [30]: 0.101 µg/mL
- IC80 [30]: 0.278 µg/mL
- MPI [30]: 100
- IC50 [31]: 0.143 µg/mL
- IC80 [31]: 0.476 µg/mL
- MPI [31]: 100

From patent publication US20230002480A1
